What was measured:
Papain = Papain (UniProt P00784); assay: cell-based or functional assay
trypsin = assay: cell-based or functional assay

Sequence of UniProt P00784 (P00784 134-345 limits assumed): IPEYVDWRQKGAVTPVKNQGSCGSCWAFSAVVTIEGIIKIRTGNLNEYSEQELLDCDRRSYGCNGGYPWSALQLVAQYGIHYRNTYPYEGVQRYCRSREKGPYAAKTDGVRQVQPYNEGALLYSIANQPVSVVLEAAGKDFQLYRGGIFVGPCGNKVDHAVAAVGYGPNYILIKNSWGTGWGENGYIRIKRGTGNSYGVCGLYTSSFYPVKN

inhibition of papain activity (relative inhibition assay, substrate N-Cbz-Phe-Arg-7-amido-4-methylcoumarin) (Papain) [%]	inhibition of trypsin activity (relative inhibition assay, substrate N-Cbz-Phe-Arg-7-amido-4-methylcoumarin) (trypsin) [%]	Substance
95	95	Oc-IΔD86/PsMTa/CpTI fusion protein (products of the construct) (from UniProt P09229 39-140)
95	95	Oc-IΔD86/go/CpTI fusion protein (from UniProt P09229 39-140)

Source: patent publication US6784337
